Data from patent US20250296971A1, “GASTRIC INHIBITORY PEPTIDE RECEPTOR LIGANDS” (priority 2021, published 2025).
*1 amine or outer side, *2 acyl side, *3 side chain or, on linkers, in order; H or OH if unused. Bridges are numbered along the chain shown (N, C = ends). Primed or numbered codes have the meaning given here. [ ]: non-standard residue; d: D form. The star is where a group is joined. Ttds″ = 1,13-diamino-4,7,10-trioxatridecan-succinamic acid (linker), O=C(CCC(=O)[*:2])NCCCOCCOCCOCCCN[*:1]; Ttds = 1,13-diamino-4,7,10-trioxatridecan-succinamic acid, NCCCOCCOCCOCCCNC(=O)CCC(=O)*; DOTA(In) = O=C1CN2CCN3CCN(CC(=O)*)CCN(CC2)CC(=O)[O][In]([O]1)[O]C(=O)C3; Ttds(3) = 1,13-diamino-4,7,10-trioxatridecan-succinamic acid linker; APAc″ = 4-amino-1-carboxymethylpiperidine, NC1CCN(CC(=O)*)CC1; dE(AGLU) = D-glutamic acid bearing 1-amino-1-deoxy-D-glucitol; Ttds(4) = 1,13-diamino-4,7,10-trioxatridecan-succinamic acid; Pro(trans-4-NH2) = O=C([C@@H]1C[C@@H](N[*:3])CN1[*:1])[*:2]; DOTA = O=C(O)CN1CCN(CC(=O)O)CCN(CC(=O)*)CCN(CC(=O)O)CC1; 3MeBn = 3-methyl-benzylidene (derived from 1,3-xylene); 2Lut = 2,6-lutidylidene bridge between two thiols; Trp(5-Cl) = N[C@@H](Cc1c[nH]c2ccc(Cl)cc12)C(=O)O; Pyridine(2,6-diCH2) = c1cc(C[*:1])nc(C[*:2])c1; Trp(5-F) = N[C@@H](Cc1c[nH]c2ccc(F)cc12)C(=O)O; 2Lut″ = 2,6-lutidylidene linking two thiols; APAc = 4-amino-1-carboxymethylpiperidine; mXylylene = c1cc(C[*:1])cc(C[*:2])c1; LuDOTA = DOTA Lutetium(III) complex; Glutaryl = O=C(CCCC(=O)[*:2])[*:1]; AGLU = 1-amino-1-deoxy-D-glucitol; Cya = N[C@@H](CS(=O)(=O)O)C(=O)O; Hyp = O=C(O)[C@@H]1C[C@@H](O)CN1; Cha = N[C@@H](CC1CCCCC1)C(=O)O; Cysteamide = C(CS[*:3])N[*:1]; Suc = O=C(CCC(=O)[*:2])[*:1]; N(CH2CH2)2NH = C1CN(*)CCN1; Api = NC1(C(=O)O)CCNCC1; Thp = NC1(C(=O)O)CCOCC1; Dap = NC[C@H](N)C(=O)O; NH(CH2)5NH2 = NCCCCCN*; DOTA′ = DOTA chelator; Aib = CC(C)(N)C(=O)O

How the values were obtained:
[1] = target: biotinylated extracellular domain of the human GIP receptor (bioGIPR) (human) (UniProt P48546); assay: SPR single cycle kinetics, bioGIPR captured on chip; category A: pKD >9.0
[2] = target: human Gastric Inhibitory Peptide Receptor (human) (UniProt P48546); assay: FACS competition with GIP-057 on CHO-K1-hGIPR cells; pIC50 category A: >8.0
[3] = target: biotinylated extracellular domain of the human GIP receptor (bioGIPR) (human) (UniProt P48546); assay: SPR single cycle kinetics, bioGIPR captured on chip; category A: t1/2 >15 min
[4] = target: human Gastric Inhibitory Peptide Receptor (GIPR) (human) (UniProt P48546); assay: FACS competition vs biotinylated GIP-057 on CHO-K1-hGIPR cells; category A: pIC50 >8.0
Chain of human Gastric Inhibitory Peptide Receptor (GIPR) (human) (P48546 22-466 limits assumed): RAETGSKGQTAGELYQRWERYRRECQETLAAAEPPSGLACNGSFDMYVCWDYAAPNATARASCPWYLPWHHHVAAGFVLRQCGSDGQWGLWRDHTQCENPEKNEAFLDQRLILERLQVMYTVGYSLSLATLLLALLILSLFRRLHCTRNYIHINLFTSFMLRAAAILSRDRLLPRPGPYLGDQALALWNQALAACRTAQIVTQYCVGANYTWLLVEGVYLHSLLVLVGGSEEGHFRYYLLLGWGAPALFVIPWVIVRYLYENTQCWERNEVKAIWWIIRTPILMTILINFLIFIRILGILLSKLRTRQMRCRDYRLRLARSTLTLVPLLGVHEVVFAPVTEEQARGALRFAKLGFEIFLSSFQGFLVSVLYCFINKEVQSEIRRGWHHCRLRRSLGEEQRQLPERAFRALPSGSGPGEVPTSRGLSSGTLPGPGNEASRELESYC

Chain of human Gastric Inhibitory Peptide Receptor (human) (P48546 22-466 limits assumed): as above
Chain of biotinylated extracellular domain of the human GIP receptor (bioGIPR) (human) (P48546 24-138 limits assumed): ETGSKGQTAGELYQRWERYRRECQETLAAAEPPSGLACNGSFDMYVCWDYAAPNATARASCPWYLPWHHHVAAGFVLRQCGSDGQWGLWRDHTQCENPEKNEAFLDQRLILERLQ

Binder | pKD [1] | pIC50 [2] | t1/2 [3] | pIC50 [4]
Suc-W[Trp(5-Cl)][Hyp]E[dL]C[Api](DOTA)LI[Cysteamide] (linker 6-10 via 2Lut) [HO-Succinyl-Trp-5Clw-Hyp-Glu-leu-[Cys(2Lut)-Apc(DOTA)-Leu-Ile-AET]] | > 9 pkd | > 8 pic50 | > 15 min | 
{DOTA-Ttds}-DW[Trp(5-Cl)][Pro(trans-4-NH2)]E[dL]C[Api]LI[Cysteamide] (linker 7-11 via Pyridine(2,6-diCH2)) [DOTA-Ttds-Asp-Trp-5Clw-Tap-Glu-leu-[Cys(2Lut)-Apc-Leu-Ile-AET]] | > 9 pkd | > 8 pic50 | > 15 min | 
Suc-W[Trp(5-Cl)][Hyp]E[dL]C[Thp]LIC-{APAc-Lys(DOTA)-NH2} (linker 6-10 via 2Lut) [HO-Succinyl-Trp-5Clw-Hyp-Glu-leu-[Cys(2Lut)-Thp-Leu-Ile-Cys]-APAc-Lys(DOTA)-NH2] | > 9 pkd | > 8 pic50 | > 15 min | 
Suc-W[Trp(5-Cl)][Hyp]E[dL]C[Thp]LIC-{NH(CH2)5NH2-DOTA′} (linker 6-10 via 2Lut) [HO-Succinyl-Trp-5Clw-Hyp-Glu-leu-[Cys(2Lut)-Thp-Leu-Ile-Cys]-Ape-DOTA] | > 9 pkd | > 8 pic50 | > 15 min | 
{AGLU-Glutaryl-APAc}-DW[Trp(5-Cl)][Hyp]E[dL]C[Api](DOTA)LIC-{APAc-dE(AGLU)-NH2} (linker 7-11 via Pyridine(2,6-diCH2)) [AGLU-Glutar-APAc-Asp-Trp-5Clw-Hyp-Glu-leu-[Cys(2Lut)-Apc(DOTA)-Leu-Ile-Cys]-APAc-glu(AGLU)-NH2] | > 9 pkd | > 8 pic50 | > 15 min | 
{AGLU-Glutaryl}-DW[Trp(5-Cl)][Hyp]E[dL]C[Api](DOTA(In))LI[Cysteamide] (thioether (positions not given here) via Pyridine(2,6-diCH2); not fully specified (bridges); printed as AGLU-Glutar-Asp-Trp-5Clw-Hyp-Glu-leu-[Cys(2Lut)-Apc(InDOTA)-Leu-Ile-AET]; also: In complex of DOTA) [AGLU-Glutar-Asp-Trp-5Clw-Hyp-Glu-leu-[Cys(2Lut)-Apc(InDOTA)-Leu-Ile-AET]] | > 9 pkd | > 8 pic50 | > 15 min | 
{DOTA-Ttds″}-DW[Trp(5-Cl)]PE[dL]C[Api]LI-Cysteamide (not fully specified (bridges); printed as DOTA-Ttds-Asp-Trp-5Clw-Pro-Glu-leu-[Cys(2Lut)-Apc-Leu-Ile-AET]) [DOTA-Ttds-Asp-Trp-5Clw-Pro-Glu-leu-[Cys(2Lut)-Apc-Leu-Ile-AET]] | > 9 pkd | > 8 pic50 | > 15 min | 
Ac-DW[Trp(5-Cl)][Hyp]E[dL]C[Thp][Cha]IC-NH2 (linker 7-11 via Pyridine(2,6-diCH2)) [Ac-Asp-Trp-5Clw-Hyp-Glu-leu-[Cys(2Lut)-Thp-Cha-Ile-Cys]-NH2] |  |  |  | > 8 pic50
DWXXEXCXLIC (AGLU-Glutar; 5Clw; Hyp; D-leu; Apc(AGLU-Glutar); 2Lut bridge Cys-Cys; APAc; Lys(DOTA); C-term NH2) [AGLU-Glutar-Asp-Trp-5Clw-Hyp-Glu-leu-[Cys(2Lut)-Apc(AGLU-Glutar)-Leu-Ile-Cys]-APAc-Lys(DOTA)-NH2] | > 9 pkd | > 8 pic50 | > 15 min | 
{AGLU-Glutaryl-APAc}-DW[Trp(5-Cl)][Pro(trans-4-NH2)]E[dL]C[Api]LIC-{APAc-dE(AGLU)-NH2} (linker 7-11 via Pyridine(2,6-diCH2); not fully specified (residue 8)) | > 9 pkd | > 8 pic50 | > 15 min | 
{DOTA-APAc″}-DW[Trp(5-Cl)][Hyp]E[dL]C[Thp]LI[Cysteamide] (linker (positions not given here) via Pyridine(2,6-diCH2); not fully specified (bridges); printed as DOTA-APAc-Asp-Trp-5Clw-Hyp-Glu-leu-[Cys(2Lut)-Thp-Leu-Ile-AET]) [DOTA-APAc-Asp-Trp-5Clw-Hyp-Glu-leu-[Cys(2Lut)-Thp-Leu-Ile-AET]] | > 9 pkd | > 8 pic50 | > 15 min | 
Ac-[Cya]W[Trp(5-Cl)][Hyp]E[dL]C[Aib]LI[Cysteamide] (linker (positions not given here) via Pyridine(2,6-diCH2); not fully specified (bridges); printed as Ac-Cya-Trp-5Clw-Hyp-Glu-leu-[Cys(2Lut)-Aib-Leu-Ile-AET]) [Ac-Cya-Trp-5Clw-Hyp-Glu-leu-[Cys(2Lut)-Aib-Leu-Ile-AET]] | > 9 pkd | > 8 pic50 | > 15 min | 
{DOTA(In)-APAc″}-DW[Trp(5-Cl)][Hyp]E[dL]C[Thp]LI[Cysteamide] (linker 7-11 via 2Lut; also: DOTA as indium complex (InDOTA)) [InDOTA-APAc-Asp-Trp-5Clw-Hyp-Glu-leu-[Cys(2Lut)-Thp-Leu-Ile-AET]] | > 9 pkd | > 8 pic50 | > 15 min | 
Suc-W[Trp(5-Cl)][Hyp]E[dL]C[Api](DOTA(In))LI[Cysteamide] (linker 6-10 via 2Lut; also: In complex of DOTA) [HO-Succinyl-Trp-5Clw-Hyp-Glu-leu-[Cys(2Lut)-Apc(InDOTA)-Leu-Ile-AET]] | > 9 pkd | > 8 pic50 | > 15 min | 
Suc-W[Trp(5-Cl)][Hyp]E[dL]C[Api]LIC-{APAc-Lys(DOTA)-NH2} (linker 6-10 via 2Lut) [HO-Succinyl-Trp-5Clw-Hyp-Glu-leu-[Cys(2Lut)-Apc-Leu-Ile-Cys]-APAc-Lys(DOTA)-NH2] | > 9 pkd | > 8 pic50 | > 15 min | 

The remaining lines, values ahead:

pKD [1] | pIC50 [2] | t1/2 [3] | pIC50 [4] | Binder
> 9 pkd | > 8 pic50 | > 15 min |  | {LuDOTA-Ttds}-DW[Trp(5-Cl)]PE[dL]C[Aib]LI[Cysteamide] (linker 7-11 via mXylylene) [LuDOTA-Ttds-Asp-Trp-5Clw-Pro-Glu-leu-[Cys(3MeBn)-Aib-Leu-Ile-AET]]
 |  |  | > 8 pic50 | Ac-D[Trp(5-F)][Trp(5-Cl)][Hyp]E[dL]C[Thp]LIC-NH2 (linker 7-11 via Pyridine(2,6-diCH2)) [Ac-Asp-5Fw-5Clw-Hyp-Glu-leu-[Cys(2Lut)-Thp-Leu-Ile-Cys]-NH2]
 |  |  | > 8 pic50 | Ac-[dD]W[Trp(5-Cl)][Hyp]E[dL]C[Thp]LIC-NH2 (linker 7-11 via Pyridine(2,6-diCH2)) [Ac-asp-Trp-5Clw-Hyp-Glu-leu-[Cys(2Lut)-Thp-Leu-Ile-Cys]-NH2]
> 9 pkd | > 8 pic50 | > 15 min |  | Suc-W[Trp(5-Cl)][Hyp]E[dL]C[Thp]LIC-{N(CH2CH2)2NH-DOTA′} (linker 6-10 via 2Lut) [HO-Succinyl-Trp-5Clw-Hyp-Glu-leu-[Cys(2Lut)-Thp-Leu-Ile-Cys]-PP-DOTA]
 |  |  | > 8 pic50 | Ac-DW[Trp(5-Cl)][Hyp]A[dL]C[Thp]LIC-NH2 (linker 7-11 via Pyridine(2,6-diCH2)) [Ac-Asp-Trp-5Clw-Hyp-Ala-leu-[Cys(2Lut)-Thp-Leu-Ile-Cys]-NH2]
> 9 pkd | > 8 pic50 | > 15 min |  | {DOTA(In)-Ttds}-DW[Trp(5-Cl)][Hyp]E[dL]C[Aib]LI[Cysteamide] (linker 7-11 via 3MeBn; also: DOTA as indium complex (InDOTA)) [InDOTA-Ttds-Asp-Trp-5Clw-Hyp-Glu-leu-[Cys(3MeBn)-Aib-Leu-Ile-AET]]
> 9 pkd | > 8 pic50 | > 15 min |  | Suc-W[Trp(5-Cl)][Hyp]E[dL]C[Thp]LIC-{Ttds(3)-Lys(DOTA)-NH2} (linker 6-10 via Pyridine(2,6-diCH2)) [HO-Succinyl-Trp-5Clw-Hyp-Glu-leu-[Cys(2Lut)-Thp-Leu-Ile-Cys]-Ttds-Lys(DOTA)-NH2]
> 9 pkd | > 8 pic50 | > 15 min |  | {DOTA-Ttds}-DW[Trp(5-Cl)][Pro(trans-4-NH2)]E[dL][Dap][Api]LI[Cysteamide] (linker 7-11 via Pyridine(2,6-diCH2)) [DOTA-Ttds-Asp-Trp-5Clw-Tap-Glu-leu-[Dap(2Lut)-Apc-Leu-Ile-AET]]
> 9 pkd | > 8 pic50 | > 15 min |  | Ac-DW[Trp(5-Cl)][Pro(trans-4-NH2)](DOTA)E[dL]C[Thp]LIC-NH2 (linker 7-11 via 2Lut″) [Ac-Asp-Trp-5Clw-Tap(DOTA)-Glu-leu-[Cys(2Lut)-Thp-Leu-Ile-Cys]-NH2]
> 9 pkd | > 8 pic50 | > 15 min |  | {DOTA-APAc″}-DW[Trp(5-Cl)][Hyp]E[dL][Dap][Thp]LI[Cysteamide] (linker (positions not given here) via mXylylene; not fully specified (bridges); printed as DOTA-APAc-Asp-Trp-5Clw-Hyp-Glu-leu-[Dap(3MeBn)-Thp-Leu-Ile-AET]) [DOTA-APAc-Asp-Trp-5Clw-Hyp-Glu-leu-[Dap(3MeBn)-Thp-Leu-Ile-AET]]
 |  |  | > 8 pic50 | Ac-DW[Trp(5-Cl)][Hyp]S[dL]C[Thp]LIC-NH2 (linker 7-11 via Pyridine(2,6-diCH2)) [Ac-Asp-Trp-5Clw-Hyp-Ser-leu-[Cys(2Lut)-Thp-Leu-Ile-Cys]-NH2]
> 9 pkd | > 8 pic50 | > 15 min |  | Ac-SW[Trp(5-Cl)][Hyp]E[dL]C[Thp]LIC-NH2 (linker 7-11 via Pyridine(2,6-diCH2); SMILES CC[C@H](C)[C@@H]1NC(=O)[C@H](CC(C)C)NC(=O)C2(CCOCC2)NC(=O)[C@@H](NC(=O)[C@@H](CC(C)C)NC(=O)[C@H](CCC(=O)O)NC(=O)[C@@H]2C[C@@H](O)CN2C(=O)[C@H](Cc2c[nH]c3ccc(Cl)cc23)NC(=O)[C@H](Cc2c[nH]c3ccccc23)NC(=O)[C@H](CO)NC(C)=O)CSCc2cccc(n2)CSC[C@@H](C(N)=O)NC1=O) [Ac-Ser-Trp-5Clw-Hyp-Glu-leu-[Cys(2Lut)-Thp-Leu-Ile-Cys]-NH2]
 |  |  | > 8 pic50 | Ac-DW[Trp(5-Cl)][Hyp]V[dL]C[Thp]LIC-NH2 (linker 7-11 via Pyridine(2,6-diCH2)) [Ac-Asp-Trp-5Clw-Hyp-Val-leu-[Cys(2Lut)-Thp-Leu-Ile-Cys]-NH2]
> 9 pkd | > 8 pic50 | > 15 min |  | {DOTA(In)-APAc″}-DW[Trp(5-Cl)]PE[dL]C[Aib]LI[Cysteamide] (linker 7-11 via 3MeBn; also: DOTA as indium complex (InDOTA)) [InDOTA-APAc-Asp-Trp-5Clw-Pro-Glu-leu-[Cys(3MeBn)-Aib-Leu-Ile-AET]]
